Measured values from patent US20230041071A1 (NATIONAL INSTITUTE OF BIOLOGICAL SCIENCES BEIJING, published 2023).
Positions count from the first letter of the chain named.

Columns and labels:
hAREG-98aa = molecular target: T1, hAREG-98aa (human, UniProt P15514 101-198); assay: SPR, Biacore T200; mAb captured on anti-human Fc chip, antigen in solution
T1 construct: Bought protein
T1 sequence (looked up): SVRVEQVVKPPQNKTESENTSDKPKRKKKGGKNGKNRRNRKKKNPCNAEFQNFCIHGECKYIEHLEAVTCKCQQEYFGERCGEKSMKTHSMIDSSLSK
Description: (§1) To evaluate affinities of different mouse hybridoma mAbs or their humanized and engineered variants, SPR measurement was performed using Biacore T200 instrument. mAbs were captured on anti-human Fc CM5 biosensor chip surface, hAREG-EGFd-mFc, mAREG-EGFd-mFc or hAREG-98aa (purchased from PeproTech, cat #100-55B) in serial dilutions were injected over antibody-bound surface, followed by a dissociation phase. Association rates (Ka) and dissociation rates (Kd) were calculated using the one-to-one Langmuir binding model (BIA Evaluation Software, GE Life Sciences). The equilibrium dissociation constant (KD) was calculated as the ratio kd/ka.

hAREG-EGFd-mFc = molecular target: T2, hAREG-EGFd-mFc (human; mouse, UniProt P15514 142-184); assay: as above
T2 construct: Expressed in 293F cells; not shown: Fc fragment of mouse IgG2a
T2 chain: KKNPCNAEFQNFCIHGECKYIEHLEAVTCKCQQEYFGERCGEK
Description: as §1

hAREG-E149K variant = molecular target: T3, hAREG-E149K variant (human, UniProt P15514 142-184); assay: SPR (Biacore T200)
T3 construct: also called E149K variant of hAREG-EGFd
T3 chain: T2 chain with E8K

hAREG-H164N variant = molecular target: T4, hAREG-H164N variant (human, UniProt P15514 142-184); assay: SPR (Biacore T200)
T4 construct: also called H164N variant of hAREG-EGFd
T4 chain: T2 chain with H23N

mAREG-EGFd-mFc = molecular target: T5, mAREG-EGFd-mFc (mouse, UniProt P31955 135-177); assay: SPR (Biacore T200)
T5 construct: also called EGF domain of mAREG (aa135-177) fused with mFc tag; not shown: mFc tag (Fc fragment of mouse IgG2a as for hAREG-EGFd-mFc)
T5 chain: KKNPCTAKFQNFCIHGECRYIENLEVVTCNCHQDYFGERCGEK

mAREG-N164H variant = molecular target: T6, mAREG-N164H variant (mouse, UniProt P31955 135-177, limits assumed); assay: SPR (Biacore T200)
T6 construct: Position is in hAREG numbering
T6 chain: T5 chain with N23H

B1: hu9C12v6 (antibody, V domains shown)
VH: EVQLVESGGGLVKPGGSLRLSCAASGFTFSSYPMSWVRQAPEKGLEWVSTISTGGTYTYYPDSVKGRFTISRDNAKNSLYLQMNSLRAEDTAVYYCARQGPIYYGNYYYGMDVWGQGTTVTVSS
VL: DVVMTQSPLSLPVTLGDPASISCRSSQSLVNQEGETYLHWYQQRPGQSPKLLIYKVSNRFDGVPDRFSGSGSGTDFTLKISRVEAEDVGVYYCSQSTHVPYTFGQGTKLEIK
notes: Humanized 9C12 variant
Kd (hAREG-98aa): 0.188 nM | koff (hAREG-98aa): 0.00457 s⁻¹ | kon (hAREG-98aa): 2.43e+07 M⁻¹ s⁻¹ | Kd (hAREG-EGFd-mFc): 0.398 nM | koff (hAREG-EGFd-mFc): 0.000389 s⁻¹ | kon (hAREG-EGFd-mFc): 978000 M⁻¹ s⁻¹ | binding result (hAREG-E149K variant): binds | binding result (hAREG-H164N variant): no binding | binding result (mAREG-EGFd-mFc): no binding | binding result (mAREG-N164H variant): binds
